Source: the array DNA melting data of Ke et al.

Experiment: melting temperature; melt of duplexes
Settings: sodium 0.0675 M; strand 1 µM
Substance “CGACGTGCGCGATGTGCTG+CAGCACATAGCGCACGTCG ((((((((((.((((((((+)))))))).))))))))))” has a Tm of 63 °C.
Substance “CGACGTGCCCTATGTGCTG+CAGCACATAATGCACGTCG ((((((((..(((((((((+)))))))))..))))))))” has a Tm of 48.8 °C.
“CGACGTGCTTGATGTGCTG+CAGCACATGGAGCACGTCG (((((((((..((((((((+))))))))..)))))))))” gave a Tm of 54 °C.
Substance “CGACGTGCCAGATGTGCTG+CAGCACATATTGCACGTCG ((((((((.(.((((((((+)))))))).).))))))))” has a Tm of 50.1 °C.
“CGACGTGCGTTATGTGCTG+CAGCACATGGCGCACGTCG (((((((((..((((((((+))))))))..)))))))))” showed a Tm of 57.5 °C.
“CGACGTGCGTAATGTGCTG+CAGCACATGTCGCACGTCG (((((((((..((((((((+))))))))..)))))))))” showed a Tm of 56 °C.
“CGACGTGCCCCATGTGCTG+CAGCACATACCGCACGTCG ((((((((...((((((((+))))))))...))))))))” gave a Tm of 45.8 °C.
“CGACGTGCAAGATGTGCTG+CAGCACATTCAGCACGTCG ((((((((...((((((((+))))))))...))))))))” gave a Tm of 50.7 °C.
Substance “CGACGTGCCGGATGTGCTG+CAGCACATTCGGCACGTCG ((((((((((.((((((((+)))))))).))))))))))” has a Tm of 62.4 °C.
“CGACGTGCATTATGTGCTG+CAGCACATCAGGCACGTCG ((((((((.(.((((((((+)))))))).).))))))))” showed a Tm of 49.9 °C.
“CGACGTGCTCCATGTGCTG+CAGCACATCTCGCACGTCG ((((((((...((((((((+))))))))...))))))))” gave a Tm of 46.2 °C.
In the case of “CGACGTGCTGGATGTGCTG+CAGCACATCGTGCACGTCG ((((((((..(((((((((+)))))))))..))))))))”, the Tm is reported as 53.2 °C.
For “CGACGTGCAGGATGTGCTG+CAGCACATTGAGCACGTCG ((((((((...((((((((+))))))))...))))))))”, the Tm was 50.6 °C.
“CGACGTGCACTATGTGCTG+CAGCACATGAAGCACGTCG ((((((((...((((((((+))))))))...))))))))” showed a Tm of 45.9 °C.
In the case of “CGACGTGCCCTATGTGCTG+CAGCACATGAAGCACGTCG ((((((((...((((((((+))))))))...))))))))”, the Tm is reported as 49 °C.
“CGACGTGCTCGATGTGCTG+CAGCACATGGGGCACGTCG ((((((((.(.((((((((+)))))))).).))))))))” gave a Tm of 54.5 °C.
In the case of “CGACGTGCTTAATGTGCTG+CAGCACATACGGCACGTCG ((((((((...((((((((+))))))))...))))))))”, the Tm is reported as 48.3 °C.
“CGACGTGCAAGATGTGCTG+CAGCACATCGGGCACGTCG ((((((((..(((((((((+)))))))))..))))))))” gave a Tm of 57 °C.
In the case of “CGACGTGCCTTATGTGCTG+CAGCACATAGGGCACGTCG (((((((((.(((((((((+))))))))).)))))))))”, the Tm is reported as 57.7 °C.
With “CGACGTGCCCGATGTGCTG+CAGCACATATAGCACGTCG ((((((((...((((((((+))))))))...))))))))” the Tm was 49 °C.
In the case of “CGACGTGCCATATGTGCTG+CAGCACATTAAGCACGTCG ((((((((...((((((((+))))))))...))))))))”, the Tm is reported as 50.1 °C.
“CGACGTGCCACATGTGCTG+CAGCACATGTCGCACGTCG ((((((((.((((((((((+)))))))))).))))))))” gave a Tm of 56.4 °C.
“CGACGTGCAGAATGTGCTG+CAGCACATTTAGCACGTCG ((((((((..(((((((((+)))))))))..))))))))” gave a Tm of 53.3 °C.
“CGACGTGCAAAATGTGCTG+CAGCACATATGGCACGTCG ((((((((.(.((((((((+)))))))).).))))))))” gave a Tm of 50.3 °C.
“CGACGTGCCTGATGTGCTG+CAGCACATGTCGCACGTCG ((((((((...((((((((+))))))))...))))))))” showed a Tm of 48 °C.
Work on “CGACGTGCCTAATGTGCTG+CAGCACATCCAGCACGTCG ((((((((...((((((((+))))))))...))))))))” yielded a Tm of 48.7 °C.
Work on “CGACGTGCGCAATGTGCTG+CAGCACATAAGGCACGTCG ((((((((...((((((((+))))))))...))))))))” yielded a Tm of 50.9 °C.
With “CGACGTGCCTAATGTGCTG+CAGCACATTAGGCACGTCG (((((((((((((((((((+)))))))))))))))))))” the Tm was 63.6 °C.
Work on “CGACGTGCTGAATGTGCTG+CAGCACATGCGGCACGTCG ((((((((.(.((((((((+)))))))).).))))))))” yielded a Tm of 55.3 °C.
With “CGACGTGCTGGATGTGCTG+CAGCACATTTGGCACGTCG ((((((((...((((((((+))))))))...))))))))” the Tm was 51.8 °C.
For “CGACGTGCAATATGTGCTG+CAGCACATTGAGCACGTCG ((((((((...((((((((+))))))))...))))))))”, the Tm was 50.4 °C.
With “CGACGTGCAAAATGTGCTG+CAGCACATGGCGCACGTCG ((((((((...((((((((+))))))))...))))))))” the Tm was 54 °C.
For “CGACGTGCAGTATGTGCTG+CAGCACATAGTGCACGTCG (((((((((.(((((((((+))))))))).)))))))))”, the Tm was 55.1 °C.
With “CGACGTGCTTCATGTGCTG+CAGCACATGATGCACGTCG ((((((((.((((((((((+)))))))))).))))))))” the Tm was 58.8 °C.
Substance “CGACGTGCACGATGTGCTG+CAGCACATCAGGCACGTCG ((((((((..(((((((((+)))))))))..))))))))” has a Tm of 53.4 °C.
With “CGACGTGCCTCATGTGCTG+CAGCACATCAGGCACGTCG ((((((((((.((((((((+)))))))).))))))))))” the Tm was 55 °C.
“CGACGTGCGTAATGTGCTG+CAGCACATATCGCACGTCG (((((((((..((((((((+))))))))..)))))))))” gave a Tm of 55.6 °C.
For “CGACGTGCTTTATGTGCTG+CAGCACATTGGGCACGTCG ((((((((...((((((((+))))))))...))))))))”, the Tm was 49.8 °C.
For “CGACGTGCGTAATGTGCTG+CAGCACATCCCGCACGTCG (((((((((..((((((((+))))))))..)))))))))”, the Tm was 53.5 °C.
“CGACGTGCGTTATGTGCTG+CAGCACATTGAGCACGTCG ((((((((...((((((((+))))))))...))))))))” showed a Tm of 54 °C.
“CGACGTGCCATATGTGCTG+CAGCACATCGAGCACGTCG ((((((((...((((((((+))))))))...))))))))” gave a Tm of 49.8 °C.
Substance “CGACGTGCTACATGTGCTG+CAGCACATAGTGCACGTCG ((((((((...((((((((+))))))))...))))))))” has a Tm of 48.1 °C.
In the case of “CGACGTGCACAATGTGCTG+CAGCACATGTGGCACGTCG ((((((((...((((((((+))))))))...))))))))”, the Tm is reported as 51.2 °C.
Substance “CGACGTGCATCATGTGCTG+CAGCACATAGAGCACGTCG ((((((((...((((((((+))))))))...))))))))” has a Tm of 50.1 °C.
Substance “CGACGTGCGATATGTGCTG+CAGCACATACTGCACGTCG ((((((((..(((((((((+)))))))))..))))))))” has a Tm of 52.6 °C.
Work on “CGACGTGCACCATGTGCTG+CAGCACATAACGCACGTCG ((((((((...((((((((+))))))))...))))))))” yielded a Tm of 43.8 °C.
“CGACGTGCATAATGTGCTG+CAGCACATTCAGCACGTCG ((((((((..(((((((((+)))))))))..))))))))” showed a Tm of 52 °C.
“CGACGTGCCGAATGTGCTG+CAGCACATCGCGCACGTCG ((((((((...((((((((+))))))))...))))))))” showed a Tm of 54.7 °C.
“CGACGTGCCTAATGTGCTG+CAGCACATAGCGCACGTCG ((((((((...((((((((+))))))))...))))))))” showed a Tm of 50.3 °C.
Substance “CGACGTGCAGCATGTGCTG+CAGCACATATCGCACGTCG ((((((((...((((((((+))))))))...))))))))” has a Tm of 46.6 °C.
For “CGACGTGCAAAATGTGCTG+CAGCACATTCCGCACGTCG ((((((((..(((((((((+)))))))))..))))))))”, the Tm was 50.6 °C.
For “CGACGTGCTGAATGTGCTG+CAGCACATAGAGCACGTCG (((((((((..((((((((+))))))))..)))))))))”, the Tm was 52.2 °C.
For “CGACGTGCATGATGTGCTG+CAGCACATTTGGCACGTCG ((((((((...((((((((+))))))))...))))))))”, the Tm was 50.3 °C.
For “CGACGTGCTTCATGTGCTG+CAGCACATAACGCACGTCG ((((((((.(.((((((((+)))))))).).))))))))”, the Tm was 49.3 °C.
“CGACGTGCACAATGTGCTG+CAGCACATTTAGCACGTCG ((((((((..(((((((((+)))))))))..))))))))” gave a Tm of 48.3 °C.
In the case of “CGACGTGCTTGATGTGCTG+CAGCACATAACGCACGTCG ((((((((.(.((((((((+)))))))).).))))))))”, the Tm is reported as 50.8 °C.
For “CGACGTGCTGAATGTGCTG+CAGCACATTTCGCACGTCG ((((((((..(((((((((+)))))))))..))))))))”, the Tm was 53.1 °C.
“CGACGTGCACCATGTGCTG+CAGCACATGCCGCACGTCG ((((((((..(((((((((+)))))))))..))))))))” showed a Tm of 48.6 °C.
In the case of “CGACGTGCTGAATGTGCTG+CAGCACATACTGCACGTCG ((((((((.(.((((((((+)))))))).).))))))))”, the Tm is reported as 53.7 °C.
With “CGACGTGCCAAATGTGCTG+CAGCACATTCTGCACGTCG ((((((((..(((((((((+)))))))))..))))))))” the Tm was 51.5 °C.
For “CGACGTGCTAGATGTGCTG+CAGCACATCATGCACGTCG ((((((((..(((((((((+)))))))))..))))))))”, the Tm was 55.6 °C.
“CGACGTGCAGCATGTGCTG+CAGCACATTCTGCACGTCG ((((((((((.((((((((+)))))))).))))))))))” showed a Tm of 55 °C.
Work on “CGACGTGCAATATGTGCTG+CAGCACATGTAGCACGTCG ((((((((.(.((((((((+)))))))).).))))))))” yielded a Tm of 52 °C.
“CGACGTGCCTCATGTGCTG+CAGCACATTATGCACGTCG ((((((((.(.((((((((+)))))))).).))))))))” gave a Tm of 47.7 °C.
With “CGACGTGCCAGATGTGCTG+CAGCACATAACGCACGTCG ((((((((...((((((((+))))))))...))))))))” the Tm was 48.6 °C.
Substance “CGACGTGCTATATGTGCTG+CAGCACATCGAGCACGTCG (((((((((..((((((((+))))))))..)))))))))” has a Tm of 51.5 °C.
For “CGACGTGCAGGATGTGCTG+CAGCACATTAAGCACGTCG ((((((((...((((((((+))))))))...))))))))”, the Tm was 50.7 °C.
Work on “CGACGTGCCTCATGTGCTG+CAGCACATACTGCACGTCG ((((((((...((((((((+))))))))...))))))))” yielded a Tm of 47 °C.
In the case of “CGACGTGCCGTATGTGCTG+CAGCACATTGGGCACGTCG (((((((((..((((((((+))))))))..)))))))))”, the Tm is reported as 54.7 °C.
Substance “CGACGTGCGACATGTGCTG+CAGCACATTCGGCACGTCG ((((((((...((((((((+))))))))...))))))))” has a Tm of 51.9 °C.
With “CGACGTGCGCCATGTGCTG+CAGCACATCTGGCACGTCG ((((((((...((((((((+))))))))...))))))))” the Tm was 47.4 °C.
Substance “CGACGTGCAGTATGTGCTG+CAGCACATACTGCACGTCG (((((((((((((((((((+)))))))))))))))))))” has a Tm of 62.7 °C.
